Usually Kd stands for the free concentration of one partner at which half of the binding sites on the other are occupied at equilibrium, for simple one-to-one binding. Low values mean a tighter complex, high ones a looser complex.

B1: Full-length mouse MANF (wild-type) (natural protein)
chain: LRPGDCEVCISYLGRFYQDLKDRDVTFSPATIEEELIKFCREARGKENRLCYYIGATDDAATKIINEVSKPLAHHIPVEKICEKLKKKDSQICELKYDNQIDLSTVDLKKLRVKELKKILDDWGEMCKGCAEKSDYIRKINELMPKYAPKAASARTDL
B2: biotinylated AviTag-BiP^19–413 (NBD) (domain or fragment)
chain: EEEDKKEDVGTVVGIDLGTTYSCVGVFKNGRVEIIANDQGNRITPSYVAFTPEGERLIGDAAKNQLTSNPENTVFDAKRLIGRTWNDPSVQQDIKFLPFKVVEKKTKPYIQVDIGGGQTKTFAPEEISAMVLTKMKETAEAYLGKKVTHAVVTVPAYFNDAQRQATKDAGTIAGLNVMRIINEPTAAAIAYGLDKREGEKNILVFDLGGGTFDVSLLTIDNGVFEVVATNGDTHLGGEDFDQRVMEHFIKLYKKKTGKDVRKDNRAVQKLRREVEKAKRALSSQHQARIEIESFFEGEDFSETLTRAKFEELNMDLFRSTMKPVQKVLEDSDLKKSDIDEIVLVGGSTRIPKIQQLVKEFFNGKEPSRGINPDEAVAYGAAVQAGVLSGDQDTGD
modifications: biotin (on the AviTag, by E. coli BirA)

The target in assay [1] is B2. In words: BLI; steady-state K1/2 max.
Assay [2] addresses B1. In words: BLI; K1/2 max, steady state. On the technique in general: BLI is a label-free optical method that tracks binding on a fibre tip over time.

As to B1, the dissociation constant (Kd) in assay [1] is 13.9 µM.

Turning to B2, the affinity in assay [2], expressed as Kd, was 16 µM. That is a double-digit micromolar value.

In turn, TVDLKKLRVKELKKILDDWGEMCKGCAEKSDYIRKINELMPKYA (domain or fragment) [SAP domain (126-169)] had a Kd in assay [1] of 10.3 µM.

Source of the values: publication PMC6358605 (2019).
